Laboratory results: PMC8517087, “Analysis of M4 Transmembrane Segments in NMDA Receptor Function: A Negative Allosteric Modulatory Site at the GluN1 M4 is Determining the Efficiency of Neurosteroid Modulation” (Frontiers in Pharmacology, 2021)
One block for each substance: values may come before it.

Key:
[1] = target: GluN1^ΔM4/GluN2A receptor (M4-truncated core receptor) (rat | mouse) (UniProt P35439)
[2] = target: GluN1/GluN2A^ΔM4 receptor (rat | mouse) (UniProt P35439)
[3] = target: GluN1^ΔM4/GluN2A^F637A receptor (rat | mouse) (UniProt P35439)

rescue of agonist-induced current (TEVC) in oocytes co-expressing M4^N1-F817A with GluN1^ΔM4/GluN2A, compared with wt M4^N1 [1]: 90 % decrease
Substance: M4^N1-F817A (from UniProt P35439 802-925) (domain or fragment)

rescue of agonist-induced current: Imax by TEVC in oocytes co-expressing M4^N1 with GluN1/GluN2A^ΔM4 [2]: 0.016 µA
rescued Imax current (TEVC) of GluN1^ΔM4/GluN2A^F637A co-expressed with M4^N1, normalised to the unmutated receptor [3]: 50 % decrease
Substance: M4^N1, isolated GluN1 M4 fragment (GluN 1^802–925) (from UniProt P35439 802-925) (domain or fragment)

rescue of agonist-induced current: Imax by TEVC in oocytes co-expressing M4^N2A with GluN1/GluN2A^ΔM4 [2]: 0.24 µA
Substance: M4^N2A, isolated GluN2A M4 fragment (GluN2A^804–1464) (from UniProt P35436 804-1464) (domain or fragment)
